Biological target: SARS-CoV-1 spike protein (SARS-CoV-1, UniProt P59594 14-1190)
Assay: ELISA, hybridoma supernatant

B1: SARS2-38 (antibody, V domains shown)
VH: QVQLKESGPGLVAPSQSLSITCTVSGFSLTRYGVHWVRQPPGKGLEWLGVIWADGSTYYNSALMSRLSISKDNSKSQVFLNMNSLQTDDTAKYYCARDGRGYDDYWGQGTTLTVSS
VL: QIVLTQSPAIMSASPGEKVTMTCSASSTVSFIYWYQQKPGSSPRLLIYDTSNPASGVPVRFSGSGCGTSYYLTISRMEAEDAATYYCQQWNTYPLTFGAGTKLELK
Does B1 bind?
Result: no binding
